From patent publication US20110144312A1 (Kyowa Kirin, published 2011)

Experiments:
[1] = target: T1, SNP variant S159G of human IL-10Rα extracellular domain fused to the Fc portion of human IgG1 (human); test: ELISA with SNP variant Fc fusion
T1 construct: The entry already holds the change and includes the signal peptide
Target sequence in this assay (chain, as listed by the source S159G S159G limits assumed): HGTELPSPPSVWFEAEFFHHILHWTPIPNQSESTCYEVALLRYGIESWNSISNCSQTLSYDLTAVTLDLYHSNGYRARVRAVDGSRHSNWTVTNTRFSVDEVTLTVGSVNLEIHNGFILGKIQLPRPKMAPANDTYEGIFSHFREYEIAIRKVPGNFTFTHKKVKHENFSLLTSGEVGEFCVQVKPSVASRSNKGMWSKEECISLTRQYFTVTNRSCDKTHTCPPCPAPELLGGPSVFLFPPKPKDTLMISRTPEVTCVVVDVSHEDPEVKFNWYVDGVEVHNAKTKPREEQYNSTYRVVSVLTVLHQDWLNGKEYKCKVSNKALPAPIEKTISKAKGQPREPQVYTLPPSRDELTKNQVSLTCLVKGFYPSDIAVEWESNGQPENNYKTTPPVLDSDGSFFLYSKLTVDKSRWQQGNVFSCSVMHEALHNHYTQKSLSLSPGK

[2] = target: T2, SNP variant V113I of human IL-10Rα extracellular domain fused to the Fc portion of human IgG1 (human); test: ELISA with SNP variant Fc fusion
T2 construct: The entry already holds the change and includes the signal peptide; also called V1131
Target sequence in this assay (chain, as listed by the source V113I V113I limits assumed): as the sequence (chain, as listed by the source S159G S159G limits assumed) above, with V92I, G138S counted along it

[3] = target: T3, SNP variant R212E of human IL-10Rα extracellular domain fused to the Fc portion of human IgG1 (human); test: ELISA with SNP variant Fc fusion
T3 construct: The entry already holds the change and includes the signal peptide

[4] = target: T4, SNP variant V233M of human IL-10Rα extracellular domain fused to the Fc portion of human IgG1 (human); test: ELISA with SNP variant Fc fusion
T4 construct: The entry already holds the change and includes the signal peptide
Target sequence in this assay (chain, as listed by the source V233M V233M limits assumed): as the sequence (chain, as listed by the source S159G S159G limits assumed) above, with G138S, V212M counted along it

[5] = target: T5, SNP variant L61V of human IL-10Rα extracellular domain fused to the Fc portion of human IgG1 (human); test: ELISA with SNP variant Fc fusion
T5 construct: The entry already holds the change and includes the signal peptide; also called L61I; L611

[6] = target: T6, Biotin-SGSTLDLYHSNGYRARVRAVDG-NH2 (human, N-terminal biotin, C-terminal amide (-NH2)); test: ELISA, biotinylated peptide on Extravidin or Neutravidin plates
T6 peptide: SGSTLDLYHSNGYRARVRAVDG
Protocol: Multiple ELISA methods were also employed to detect binding of anti-IL-10Rα antibodies to IL-10Rα, derived peptides. The biotinylated IL-10Rα derived peptides (SEQ ID NO. 86-87) were diluted to 1 μg/ml in TBS/BSA/0.05% Tween 20 and added to Extravidin or Neutravidin pre-coated ELISA plates (Pierce) for 2 hours at room temperature. After washing three times with TBS/BSA/0.05% Tween 20. The purified anti-human IL-10Rα antibodies were diluted in TBS/BSA/0.05% Tween 20 and added to the wells. The plates were incubated for 1 hour at room temperature. The plates were washed 3 times with TBS/0.05% Tween 20 and peroxidase-conjugated goat anti-human IgG (Fcγ specific), anti-rat IgG, or anti-mouse IgG detection antibodies (Jackson Immunoresearch) were added. Following 1 hour incubation at room temperature, the plates were washed and the TMB (Sigma) substrate was added and incubated at room temperature for 5 to 10 minutes. The reaction was stopped with H₂SO₄ (LabChem) and the optical density was measured at 450 nm using a microplate reader. An OD reading above background wells with no primary antibody is indicative of antibody binding to the peptides. […] The antibodies only bound the positive control biotinylated recombinant human IL-10Rα:hFc protein. […] Antibody binding was detected with species-specific anti-IgG-HRP secondary antibodies. […]

[7] = target: T4, SNP variant V233M of human IL-10Rα …; test: ELISA, coated SNP variant Fc fusion V233M [F]
[8] = target: T2, SNP variant V113I of human IL-10Rα …; test: ELISA, coated SNP variant Fc fusion V113I [C]
[9] = target: T7, Biotin-SGSTYSIFSHFREYEIAIRKV-NH2 (human, N-terminal biotin, C-terminal amide (-NH2)); test: dot blot on PVDF or nitrocellulose membrane
T7 peptide: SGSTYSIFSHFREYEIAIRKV
Protocol: (§1) Methods to detect antibody binding to peptides derived from the human IL-10Rα sequence: Multiple methods were employed to detect binding of anti-human IL-10Rα antibodies to peptides derived from the extracellular domain of human IL-10Rα that have been reported by Reineke, et al. (Reineke, et al., Protein Sci 7:951 (1998)) to be included in the IL-10 binding site of the receptor. The following amide synthesized peptides were tested: Ac-[…]-NH2, Ac-[…]-NH2, Ac-[…]-NH2, Ac-[…]-NH2, Ac-[…]-NH2 (SEQ ID NO. 81-85). In addition, the following biotinylated peptides were tested: Biotin-[…]-NH2, Biotin-[…]-NH2 (SEQ ID NO. 86-87). The amide peptides were synthesized by A&A Labs, LLC (San Diego, Calif.) and the biotinylated peptides were synthesized by GenScript (Piscataway, N.J.) both at >95% purity and reconstituted at 20 mg/ml in DMSO. In one assay design peptides were spotted at 5 μg/spot in PBS onto PVDF membranes or nitrocellulose membranes that had been prepared according to the manufacturer's instructions. The membranes were incubated with anti-IL-10Rα antibodies using standard Western blotting methods (e.g. Towbin, et al., Proc Natl Acad Sci 76:4350 (1979)). Native human IL-10Ra:hFc and heat denatured human IL-10Ra:hFc were also spotted at 1 μg/spot on the membranes as controls. Negative controls included an irrelevant peptide and isotype controls. […] None of the antibodies bound to the spotted denatured protein or to any of the peptides derived from the human IL-10Ra extracellular domain or the irrelevant peptide.

[10] = target: T6, Biotin-SGSTLDLYHSNGYRARVRAVDG-NH2; test: dot blot on PVDF or nitrocellulose membrane
Protocol: as §1

[11] = target: T1, SNP variant S159G of human IL-10Rα …; test: ELISA, coated SNP variant Fc fusion S159G [D]
[12] = target: T3, SNP variant R212E of human IL-10Rα …; test: ELISA, coated SNP variant Fc fusion R212E [E]

T3 sequence (chain, as listed by the source R212E R212E limits assumed): as the sequence (chain, as listed by the source S159G S159G limits assumed) above, with G138S, R191E counted along it
T5 sequence (chain, as listed by the source L61V L61V limits assumed): as the sequence (chain, as listed by the source S159G S159G limits assumed) above, with L40V, G138S counted along it

Row | Binder | binding result [1] | binding result [2] | binding result [3] | binding result [4] | binding result [5] | binding result [6] | binding result [7] | binding result [8] | binding result [9] | binding result [10] | binding result [11] | binding result [12]
1 | 136C5 (antibody, V domains shown, Hybridoma antibody, human IgG1, kappa light chain; also called human anti-human IL-10Rα monoclonal antibody 136C5; hybridoma deposit PTA-9131) VH: EVQLVESGGGLVQPGGSLRLSCAASGFTFSSYSMNWVRQAPGKGLEWVSYISTGSSTIYYADSVKGRFTISRDNAKNSLYLQMNSLRDEDTAVYYCARENYYGSGSYEDYFDYWGQGTLVTVSS VL: EIVLTQSPATLSLSPGERATLSCRASQSVSSYLAWYQQKPGQAPRLLIYDASNRATGIPARFSGSGSGTDFTLTISSLEPEDFAVYYCQQRSNWPIFTFGPGTKVDIK | binds | binds | binds | binds | binds | no binding (tested: 1 µg/ml peptide) |  |  |  |  |  | 
2 | 136C8 (antibody, V domains shown, Hybridoma antibody, human IgG2, kappa light chain; also called human anti-human IL-10Rα monoclonal antibody 136C8; hybridoma deposit PTA-9132) VH: EVQLVESGGGLVQPGGSLRLSCAASGFTFSSYSMNWVRQAPGKGLEWVSYISTRSSTIYYADSVKGRFTISRDNAKNSLYLQMNSLRDEDTAVYYCARENYYGSGSYEDYFDYWGQGTLVTVSS VL: EIVLTQSPATLSLSPGERATLSCRASQSVSSYLAWYQQKPGQAPRLLIYDASNRATGIPARFSGSGSGTDFTLTISSLEPEDFAVYYCQQRSNWPIFTFGPGTKVDIK |  |  |  |  |  |  | binds | binds | no binding (tested: 5 µg/spot) | no binding (tested: 5 µg/spot) | binds | binds
